In data set [1] the target is p53 full length (human, UniProt P04637 1-393). The data set can be described thus: ELISA; DO1 antibody; 2 mM Mg2+; EMSA: 5 mM Tris-HCl pH 8, 1 mM MgCl2, 0.01% Triton X-100, 50 mM KCl, on ice or 25 C, 30 min, pBSK/SmaI competitor 5-50 ng; ELISA: 1x PBS, 2 mM MgCl2, temperature not stated. The note with it: protein: recombinant, chain copies: 4. On the technique in general: An ELISA detects its analyte on a solid surface through an enzyme-linked reagent.

Data set [2] concerns the target p53CT (C-terminal segment: tetramerization domain + CTDBD) (human, UniProt P04637 320-393). The data set is described as follows: ELISA; 2 mM Mg2+; EMSA: 5 mM Tris-HCl pH 8, 1 mM MgCl2, 0.01% Triton X-100, 50 mM KCl, on ice or 25 C, 30 min, pBSK/SmaI competitor 5-50 ng; ELISA: 1x PBS, 2 mM MgCl2, temperature not stated. Conditions: protein: recombinant; tags: GST (with or without); chain copies: 4; label: 3' biotin on (dA)50; intermolecular triplex, 2 x (dT)50 + 1 x (dA)50.

Data set [3] has as its target p53T (last 30 aa, CTDBD) (human, UniProt P04637 363-393). The data set is described as above. The note with it: protein: recombinant; tags: GST (with or without); label: 3' biotin on (dA)50; intermolecular triplex, 2 x (dT)50 + 1 x (dA)50.

Sequence of p53 full length (P04637 whole entry): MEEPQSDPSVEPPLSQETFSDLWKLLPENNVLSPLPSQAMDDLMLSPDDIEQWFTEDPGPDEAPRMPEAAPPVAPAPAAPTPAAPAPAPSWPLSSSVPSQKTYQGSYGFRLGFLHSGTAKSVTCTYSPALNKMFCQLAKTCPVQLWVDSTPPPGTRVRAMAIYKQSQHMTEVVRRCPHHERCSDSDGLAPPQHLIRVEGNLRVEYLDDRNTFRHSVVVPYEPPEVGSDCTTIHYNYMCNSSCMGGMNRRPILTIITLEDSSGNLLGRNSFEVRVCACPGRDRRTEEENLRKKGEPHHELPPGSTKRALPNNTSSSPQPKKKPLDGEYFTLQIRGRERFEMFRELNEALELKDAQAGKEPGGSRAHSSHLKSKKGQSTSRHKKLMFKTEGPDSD
Sequence of p53CT (C-terminal segment: tetramerization domain + CTDBD) (P04637 320-393): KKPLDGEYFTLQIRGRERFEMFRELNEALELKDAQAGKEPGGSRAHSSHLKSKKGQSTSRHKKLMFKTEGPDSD
Sequence of p53T (last 30 aa, CTDBD) (P04637 363-393): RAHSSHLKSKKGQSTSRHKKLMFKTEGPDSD

B1: T.A.T triplex, biotinylated (structured_DNA)
DNA 1: TTTTTTTTTTTTTTTTTTTTTTTTTTTTTTTTTTTTTTTTTTTTTTTTTT
DNA 2: AAAAAAAAAAAAAAAAAAAAAAAAAAAAAAAAAAAAAAAAAAAAAAAAAA
DNA 3: B1 DNA 1
For B1, the dissociation constant Kd came to 0.75 ± 0.07 nM in data set [1] (label: 3' biotin on (dA)50, intermolecular triplex, 2 x (dT)50 + 1 x (dA)50); 1.88 ± 0.3 nM in data set [2]; 10.4 ± 0.84 nM in data set [3].

B2: CON, biotinylated (dsDNA)
DNA 1: GACGGTATCGATAAGAGACATGCCTAGACATGCCTCTTGATATCGAATTC
DNA 2: GAATTCGATATCAAGAGGCATGTCTAGGCATGTCTCTTATCGATACCGTC
As for B2, in data set [1] (label: 3' biotin on strand 1, blunt), the Kd came to 0.58 ± 0.05 nM.

Usually Kd stands for the free concentration of one partner at which half of the binding sites on the other are occupied at equilibrium, for simple one-to-one binding.
